For series [1], the system named is GFP phosphorylation mutant 25RRFSV. Particulars: scale: relative to the endogenous site HKFSV of Aequorea GFP.
In series [2] the test system is GFP N-terminal phosphorylation mutant 1MRRESLLF
The settings on record: scale: relative to the endogenous site HKFSV of Aequorea GFP.

In series [3] the test system is GFP N-terminal phosphorylation mutant 1MSKRRDSL
Particulars: scale: relative to the endogenous site HKFSV of Aequorea GFP.

Series [4] has as its system GFP N-terminal phosphorylation mutant 1MRKGSLLF
Particulars: scale: relative to the endogenous site HKFSV of Aequorea GFP.

For series [5], the system named is GFP N-terminal phosphorylation mutant 1MRKGSCLF
The settings on record: scale: relative to the endogenous site HKFSV of Aequorea GFP.

Series [6] has as its system GFP N-terminal phosphorylation mutant 1MSRRDSCF
The settings on record: scale: relative to the endogenous site HKFSV of Aequorea GFP.

In series [7] the test system is GFP phosphorylation mutant 214KRDSM.
Series [8] concerns GFP N-terminal phosphorylation mutant 1MRRDSCLF
Particulars: scale: relative to the endogenous site HKFSV of Aequorea GFP.

Series [9] has as its system wild type Aequorea green fluorescent protein.
In series [10] the test system is GFP phosphorylation mutant 68RRFSA. The settings on record: scale: relative to the endogenous site HKFSV of Aequorea GFP.
The test system of series [11] is GFP phosphorylation mutant 172RRGSV. Particulars: scale: relative to the endogenous site HKFSV of Aequorea GFP.
In series [12] the test system is GFP phosphorylation mutant 155KRKSGI. Particulars: scale: relative to the endogenous site HKFSV of Aequorea GFP.
[13] abbreviates: scale: relative to the endogenous site HKFSV of Aequorea GFP.

protein kinase A catalytic subunit: the Relative rates of phosphorylation worked out at 1.75 in [1]; 3 in series [2]; 5.5 in series [3]; 1.6 in series [4]; 5.1 in series [5]; 2.1 in [6]. In addition, the Relative rates of phosphorylation in series [7] (setting [13]) was 1.88; in series [8], 3.7; in series [9] (setting [13]) it was 1; in [10], 0.6; in [11], 1.57; in series [12], 2.5. Moreover, the “kinetics of phosphorylation using gamma-32P-labeled ATP” value in series [7] is reported as “the site is poorly phosphorylated by protein kinase A”. For the same substance, the phosphorylation in vitro entry in series [9] is on record as “can be phosphorylated by protein kinase A in vitro with relatively slow kinetics”.
